Results reported in IntAct's records for PubMed 21081649.

B1: NAD-dependent protein deacetylase sirtuin-2 (Homo sapiens), Q8IXJ6-2 (parent)
chain: MDFLRNLFSQTLSLGSQKERLLDELTLEGVARYMQSERCRRVICLVGAGISTSAGIPDFRSPSTGLYDNLEKYHLPYPEAIFEISYFKKHPEPFFALAKELYPGQFKPTICHYFMRLLKDKGLLLRCYTQNIDTLERIAGLEQEDLVEAHGTFYTSHCVSASCRHEYPLSWMKEKIFSEVTPKCEDCQSLVKPDIVFFGESLPARFFSCMQSDFLKVDLLLVMGTSLQVQPFASLISKAPLSTPRLLINKEKAGQSDPFLGMIMGLGGGMDFDSKKAYRDVAWLGECDQGCLALAELLGWKKELEDLVRREHASIDAQSGAGVPNPSTSASPKKSPPPAKDEARTTEREKPQ

Variants of: B1
Conditions: with h4_human H4C16, P62805

| effect of a mutation on the interaction | Variant |
| --- | --- |
| increasing interaction | L4A;L12A;H150Y |
